# Experimental data taken from the supplement of paper PMC10724198.
# ± gives the standard deviation of the averaged measurements.
# System: Saccharomyces cerevisiae
# Experiment: protein stability index of tFT-peptide fusion (C-terminal peptide) (PSI (0-1 scale)); higher = more stable (slower turnover)
# Conditions: genetic background: wild type; temperature: 30 C
# 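Also: PSI is a weighted mean of sequencing reads over stability bins, variants kept only with over 10 reads, mCherry proximal and sfGFP distal, peptide attached via GGGS linker.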
row,Sequence,protein stability index
1,RSCVGGISVLVL,0.466 ± 0.085
2,RSEPRQILHRQT,0.702 ± 0.025
3,RSFAGTTRIRLG,0.739 ± 0.043
4,RSFLTDLLRGAA,0.647 ± 0.054
5,RSFPYLLFPPPS,0.713 ± 0.046
6,RSGLHGSGRPGG,0.715 ± 0.053
7,RSHPSPPPVILY,0.686 ± 0.045
8,RSLGFPLRNVTH,0.655 ± 0.015
9,RSLGLVGRGFWG,0.728 ± 0.086
10,RSLRSSRSGTLA,0.848 ± 0.014
11,RSMLVSRQSIGV,0.695 ± 0.019
12,RSNECTSEMEVC,0.689 ± 0.04
13,RSPPPSLTPSPL,0.68193 ± 0.00027
14,RSPTGSPGRSFS,0.687 ± 0.025
15,RSRATIGSQILS,0.688 ± 0.01
16,RSRCHPRLPRAV,0.707 ± 0.03
17,RSRHPPPPLLFP,0.707 ± 0.043
18,RSRLSEAEEYGR,0.71 ± 0.0072
19,RSRPPPSPTTPL,0.775 ± 0.054
20,RSRRFPPTRPPL,0.73956 ± 0.00073
21,RSRYRLFRADLS,0.753 ± 0.062
22,RSSGAFKVCTDR,0.684 ± 0.019
23,RSSGPPCLIPLP,0.787 ± 0.047

row,Sequence,protein stability index
1,RSSLGSFSELSQ,0.777 ± 0.031
2,RSSPPHLPPPSL,0.68 ± 0.026
3,RSSSPLPLLSLL,0.753 ± 0.053
4,RSTLSPSPRPSP,0.674 ± 0.0042
5,RSTSGACSRRWL,0.624 ± 0.025
6,RSVSLIAVAPSA,0.692 ± 0.017
7,RSWIDNKMKVNV,0.721 ± 0.0076
8,RSYLLVWTSRLH,0.637 ± 0.02
9,RTAGQRLIRVNR,0.744 ± 0.075
10,RTAPVPETAQQD,0.678 ± 0.034
11,RTAVFLTRRYGT,0.673 ± 0.02
12,RTDKETIKKIVE,0.72 ± 0.014
13,RTLNPHLYRLRH,0.682 ± 0.024
14,RTRPCNGPGRFG,0.724 ± 0.057
15,RTTHPSPPTLTV,0.629 ± 0.021
16,RVCDSAPKRNRH,0.676 ± 0.018
17,RVCLVVWRECWF,0.509 ± 0.0082
18,RVCYRAELSAMS,0.559 ± 0.045
19,RVDGDFDYPRVV,0.82 ± 0.11
20,RVDLPFDRSVSD,0.702 ± 0.057
21,RVEADMKKRWTG,0.716 ± 0.028
22,RVGGPGNRGGVV,0.696 ± 0.058
23,RVGRCYPSIVRS,0.6522 ± 0.0042

row,Sequence,protein stability index
1,RVGRKGRRRGSR,0.767 ± 0.07
2,RVGTGFVGYSFS,0.679 ± 0.13
3,RVGVEYGETGGG,0.732 ± 0.29
4,RVIHLRKIHYEE,0.6728 ± 0.005
5,RVLCYHFSPGVV,0.656 ± 0.057
6,RVLPPAPLQALQ,0.645 ± 0.018
7,RVLWVELGSWGG,0.708 ± 0.045
8,RVMPRVNDKKGI,0.732 ± 0.092
9,RVNQRRATSEKT,0.677 ± 0.0082
10,RVRDPQQISILL,0.65 ± 0.025
11,RVRGAPGLRHES,0.5 ± 0.1
12,RVRWLRGVPGGL,0.635 ± 0.09
13,RVVCGGMGVRRG,0.63 ± 0.077
14,RVVFHPFVQSLF,0.62 ± 0.028
15,RVVGLWGSACMG,0.603 ± 0.01
16,RVWFWSGRGGEF,0.709 ± 0.1
17,RWAMGAAGGLQA,0.697 ± 0.021
18,RWFGRFSFCLFF,0.5 ± 0.055
19,RWGPGAVWGRGR,0.707 ± 0.068
20,RWGWWGYRGGVP,0.744 ± 0.025
21,RWIPRMSFSESQ,0.666 ± 0.0097
22,RWLGGTGGWKSR,0.673 ± 0.041
23,RWPQNRGRVSKP,0.747 ± 0.017

row,Sequence,protein stability index
1,RWVGWGAWLSEV,0.611 ± 0.02
2,RWVNNKKTKGQD,0.767 ± 0.042
3,RWVWRNRSGGGE,0.636 ± 0.043
4,RYELSLRLYGSL,0.623 ± 0.089
5,RYFISAHPGGIA,0.66 ± 0.02
6,RYGHSRLCLGFR,0.657 ± 0.12
7,RYHPRSHVLGRD,0.682 ± 0.063
8,RYKALEAQGPRF,0.717 ± 0.0008
9,RYLAEKAVLTHN,0.659 ± 0.012
10,RYSPFSFLASLP,0.732 ± 0.049
11,SACCNFAPAFGQ,0.662 ± 0.019
12,SADGIVSQVTCL,0.693 ± 0.031
13,SAFDVLCHVVVG,0.634 ± 0.021
14,SAFPGGCCSILL,0.709 ± 0.022
15,SAHPFLPLFSPP,0.718 ± 0.012
16,SALEVSPSNGSF,0.598 ± 0.015
17,SALTPCPPPYSH,0.668 ± 0.032
18,SALVLVLPSIPP,0.649 ± 0.024
19,SANCQQSRMFIT,0.623 ± 0.044
20,SAPILPPQSSSP,0.749 ± 0.035
21,SAPLVSLHLSPL,0.68 ± 0.011
22,SAPPDVAPLFSP,0.74 ± 0.053
23,SAQPELPNIAPA,0.636 ± 0.049

row,Sequence,protein stability index
1,SARQCWFSLSDD,0.639 ± 0.043
2,SATPFSTEVCPL,0.631 ± 0.028
3,SATSFLAAGPPT,0.6957 ± 0.0063
4,SAVPFLRASRNA,0.693 ± 0.034
5,SAWTPPLCLLPP,0.711 ± 0.043
6,SCCPPSRTFFPS,0.734 ± 0.0078
7,SCHPDPTRKSPN,0.7159 ± 0.0035
8,SCIFRGNPFLLL,0.711 ± 0.018
9,SCIIWPAKGCPF,0.687 ± 0.054
10,SCLATDSWLAFV,0.665 ± 0.058
11,SCNILPRFSPLL,0.723 ± 0.033
12,SCSICLWVGHGC,0.656 ± 0.028
13,SCTDIGWIMRDI,0.673 ± 0.061
14,SCYRSCGALLSA,0.694 ± 0.011
15,SDFAPTRPPPAP,0.634 ± 0.051
16,SDGEHIYPESYR,0.695 ± 0.023
17,SDGVSLRSFCWL,0.697 ± 0.035
18,SDKRMGSLQMSS,0.712 ± 0.033
19,SDKVKRYISTTL,0.637 ± 0.023
20,SDLPPCPSRPSP,0.661 ± 0.11
21,SDQEIKKSQCGG,0.659 ± 0.047
22,SDQPTWTAQTSN,0.783 ± 0.025
23,SDRSLPGVPVRF,0.7234 ± 0.0048

row,Sequence,protein stability index
1,SDVRANAYRPEH,0.688 ± 0.042
2,SEAHMGWRGGEK,0.643 ± 0.1
3,SEDGPTPAPSTD,0.71 ± 0.059
4,SEDLSNNMKQDI,0.688 ± 0.026
5,SEEAQRKRNTLK,0.6715 ± 0.0051
6,SEGLFSVLYIWM,0.687 ± 0.16
7,SEGSRGYLLEIQ,0.69 ± 0.029
8,SENEGEGIYVRM,0.672 ± 0.065
9,SENKRKEHRMSF,0.712 ± 0.05
10,SESLLSQPIVLV,0.647 ± 0.017
11,SEVRGRERLAKC,0.662 ± 0.041
12,SFATSELRAGNN,0.701 ± 0.17
13,SFCGVLCIRACF,0.623 ± 0.026
14,SFCSSVFWFFWL,0.584 ± 0.037
15,SFCYFSCPSLIM,0.718 ± 0.11
16,SFFFRSYCFPAP,0.7169 ± 0.0037
17,SFFGPLADEIID,0.73 ± 0.014
18,SFFGRVDSRSLP,0.7184 ± 0.0025
19,SFGACSTSERIN,0.666 ± 0.07
20,SFLPDCLSLFLF,0.612 ± 0.058
21,SFLTPFLLSYAT,0.636 ± 0.0038
22,SFLWRRSYFVFR,0.616 ± 0.017
23,SFPASSLPHSLL,0.716 ± 0.043

row,Sequence,protein stability index
1,SFPLPSPSPLLP,0.712 ± 0.05
2,SFPPTSPTHFPL,0.703 ± 0.031
3,SFPRSHPPPFPP,0.674 ± 0.012
4,SFRDSFVNFGVF,0.695 ± 0.045
5,SFSPEQITCNPY,0.598 ± 0.037
6,SFTGSASYPKGR,0.667 ± 0.0098
7,SFVLKAFLTRAV,0.765 ± 0.23
8,SGAGRRRGGARE,0.651 ± 0.031
9,SGCVARTRGLSG,0.62 ± 0.018
10,SGDCRLPLPRSP,0.711 ± 0.022
11,SGEEVRSVARFF,0.629 ± 0.035
12,SGEVIRVTDWLV,0.719 ± 0.038
13,SGGGGGKEAVVR,0.646 ± 0.019
14,SGHGGAARRPAP,0.733 ± 0.08
15,SGHSRCSPALPV,0.7123 ± 0.002
16,SGKKERQKTEEE,0.645 ± 0.1
17,SGKSSFLGAVWV,0.711 ± 0.0061
18,SGLLGVSIHGLR,0.654 ± 0.053
19,SGLRAFVVTLID,0.673 ± 0.011
20,SGLRHACTPKSD,0.671 ± 0.024
21,SGPRRECVPRSV,0.682 ± 0.066
22,SGRGGTGIGERV,0.6694 ± 0.00092
